Laboratory results reported in publication PMC4856590 (Structure (London, England : 1993), 2016).
Values belong to the binder of their own block, whether it stands above or below them. Where no end group is shown, it is not given here. The star is where a group is joined. FITC = O=C1OC2(c3ccc(O)cc3Oc3cc(O)ccc32)c2ccc(NC(=S)*)cc21

Key:
[1] = target: T1, human COP1 β-propeller (376-731) (human, UniProt Q8NHY2 376-731); experiment: fluorescence polarisation
[2] = target: T1, human COP1 β-propeller (376-731); experiment: fluorescence polarisation; remark: listed apart in the source

T1 sequence (Q8NHY2 376-731): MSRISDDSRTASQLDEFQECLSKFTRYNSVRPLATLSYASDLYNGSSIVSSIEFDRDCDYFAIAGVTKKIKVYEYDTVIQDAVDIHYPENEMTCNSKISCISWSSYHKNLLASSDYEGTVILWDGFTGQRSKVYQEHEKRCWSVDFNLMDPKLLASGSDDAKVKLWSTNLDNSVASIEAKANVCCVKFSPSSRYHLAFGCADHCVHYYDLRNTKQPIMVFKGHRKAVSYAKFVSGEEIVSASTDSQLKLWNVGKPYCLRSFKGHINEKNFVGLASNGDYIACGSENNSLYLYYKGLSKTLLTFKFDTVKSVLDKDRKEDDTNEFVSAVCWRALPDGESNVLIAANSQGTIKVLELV

- binding result [1]: binds
B1: Trib1 molecule containing residues 83-372 (domain or fragment, human, UniProt Q96RU8 83-372, looked up)
chain: GSAPGPSRIADYLLLPLAEREHVSRALCIHTGRELRCKVFPIKHYQDKIRPYIQLPSHSNITGIVEVILGETKAYVFFEKDFGDMHSYVRSRKRLREEEAARLFKQIVSAVAHCHQSAIVLGDLKLRKFVFSTEERTQLRLESLEDTHIMKGEDDALSDKHGCPAYVSPEILNTTGTYSGKAADVWSLGVMLYTLLVGRYPFHDSDPSALFSKIRRGQFCIPEHISPKARCLIRSLLRREPSERLTAPEILLHPWFESVLEPGYIDSEIGTSDQIVPEYQEDSDISSFFC

- Kd [2]: 250 ± 40 nM
Binder: {FITC}-SEIGTSDQIVPEYQEDSDI [FITC-SEIGTSDQIVPEYQEDSDI]
